Results reported in patent publication US20240261333A1, “NOVEL TARGETS FOR ENHANCING ANTI-TUMOR IMMUNITY” (THE BROAD INSTITUTE, INC., priority 2021, published 2024).

Biological target: T1, B3GNT2 (Homo sapiens, UniProt Q9NY97)
T1 construct: The respective ORFs of candidate genes [CD274 (NM_014143), MCL1 (NM_021960), JUNB (NM_002229), and B3GNT2 (NM_006577)] were synthesized; expressed in transfected cells; host or cells: A375 melanoma cells (lentiviral ORF overexpression)
T1 sequence (Q9NY97 1-397): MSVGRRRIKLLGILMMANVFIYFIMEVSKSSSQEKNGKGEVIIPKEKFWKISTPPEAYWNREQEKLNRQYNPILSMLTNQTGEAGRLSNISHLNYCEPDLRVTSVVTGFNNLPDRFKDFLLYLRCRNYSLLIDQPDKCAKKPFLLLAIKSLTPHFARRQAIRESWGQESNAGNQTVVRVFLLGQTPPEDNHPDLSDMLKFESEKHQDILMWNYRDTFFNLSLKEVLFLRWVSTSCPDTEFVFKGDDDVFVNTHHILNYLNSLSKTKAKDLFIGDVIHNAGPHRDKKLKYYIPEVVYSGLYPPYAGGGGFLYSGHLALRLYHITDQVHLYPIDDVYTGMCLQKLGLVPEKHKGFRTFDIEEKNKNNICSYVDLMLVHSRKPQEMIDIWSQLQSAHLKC
Assay: Co-IP of FLAG-tagged B3GNT2 followed by mass spectrometry
Type: cell-based
Set-up: C-term IgG / C-term flag: unit not given here
Experimental: Cells were plated in 10-cm cell culture dishes and grown to 60-80% confluency. For each condition, two biological replicates were harvested for co-IP. Cells were washed with PBS and 4 mL of lysis buffer (20 mM HEPES, 1% Triton X-100, 150 mM NaCl, 1 mM EDTA, and 10% glycerol) containing protease inhibitor cocktail was added. Cells were scraped and lysate was incubated at 4° C. under rotary agitation for 1 h. Lysate was centrifuged at 14,000×g for 10 min at 4° C. Supernatant was transferred to a new tube and an aliquot was taken as the input. […] For Western blots, 10 μg/mL Chicken Anti-FLAG (Aves labs ET-DY100) and IgY control (R&D Systems AB-101-C) antibodies were biotinylated (Thermo Fisher Scientific 90407) and added to the respective conditions. Lysates with antibodies were incubated at 4° C. under rotary agitation overnight. For each mL of lysate, 50 μL of Pierce Protein A/G Magnetic Beads (Mass spectrometry; Thermo Fisher Scientific 88803) or Pierce Streptavidin Magnetic Beads (Western blot; Thermo Fisher Scientific 88817) was washed twice with lysis buffer. Lysates with antibodies were added to the beads and incubated at 4° C. under rotary agitation for 4 h. Beads were washed with lysis buffer 3 times and resuspended in lysis buffer for storage. […] This solution was subjected to solid phase extraction to concentrate the peptides and remove unwanted reagents followed by injection onto a Shimadzu HPLC with fraction collector. Eight fractions were collected and after concentration were injected on a Waters NanoAcquity HPLC equipped with a self-packed Aeris 3 μm C18 analytical column 0.075 mm by 20 cm, (Phenomenex). Peptides were eluted using standard reverse-phase gradients. The effluent from the column was analyzed using a Thermo Orbitrap Elite mass spectrometer (nanospray configuration) operated in a data dependent manner for 54 minutes. […] Scaffold Q+S (Proteome Software) was used to provide consensus reports for the identified proteins.

[1] = Co-IP followed by mass spectrometry of B3GNT2, C-term tag, FLAG pull-down
[2] = Co-IP followed by mass spectrometry of B3GNT2, C-term tag, IgG pull-down
[3] = Co-IP followed by mass spectrometry of B3GNT2, N-term tag, FLAG pull-down
[4] = Co-IP followed by mass spectrometry of B3GNT2, N-term tag, IgG pull-down
[5] = Co-IP with FLAG antibody, C-terminally FLAG-tagged B3GNT2, mass spectrometry count, unit not given
[6] = Co-IP with FLAG antibody, N-terminally FLAG-tagged B3GNT2, mass spectrometry count, unit not given
[7] = Co-IP with IgG control antibody, C-terminally FLAG-tagged B3GNT2, mass spectrometry count, unit not given
[8] = Co-IP with IgG control antibody, N-terminally FLAG-tagged B3GNT2, mass spectrometry count, unit not given

Row | Substance | C-term flag [1] | C-term IgG [2] | N-term FLAG [3] | N-term IgG [4] | C-term flag [5] | N-term FLAG [6] | C-term IgG [7] | N-term IgG [8]
1 | PSMA7 | 2 | 0 | 4 | 0 | – | – | – | –
2 | PCMT1 | 2 | 0 | 4 | 0 | – | – | – | –
3 | HSPA8 | 49 | 15 | 41 | 16 | – | – | – | –
4 | NPM1 | – | – | – | – | 8 | 0 | 0 | 0
5 | FKBP10 | – | – | – | – | 16 | 0 | 0 | 0
6 | ATP5F1B | 4 | 0 | 2 | 0 | – | – | – | –
7 | S100A9 | – | – | – | – | 9 | 18 | 5 | 0
8 | SRSF1 | 9 | 3 | 4 | 5 | – | – | – | –
9 | TUBB | – | – | – | – | 117 | 164 | 10 | 10
10 | PRBP1 | 9 | 6 | 6 | 7 | – | – | – | –
11 | PSMB5 | 0 | 0 | 4 | 0 | – | – | – | –
12 | PIGR | – | – | – | – | 5 | 2 | 0 | 0
13 | MAP1B | – | – | – | – | 2 | 0 | 0 | 0
14 | LCN1 | 11 | 6 | 11 | 9 | – | – | – | –
15 | KRT4 | 37 | 0 | 22 | 21 | – | – | – | –
16 | DNAJA1 | – | – | – | – | 10 | 6 | 0 | 0
17 | PSMA4 | – | – | – | – | 0 | 2 | 0 | 0
18 | PRRC2A | 5 | 3 | 2 | 3 | – | – | – | –
19 | LYZ | – | – | – | – | 6 | 3 | 0 | 4
20 | ATM | – | – | – | – | 0 | 3 | 0 | 0
21 | IPO13 | – | – | – | – | 2 | 0 | 0 | 0
22 | TAF15 | 10 | 4 | 5 | 10 | – | – | – | –
23 | RPS24 | 8 | 2 | 0 | 4 | – | – | – | –
24 | SYNM | 5 | 2 | 5 | 5 | – | – | – | –
25 | XRCC5 | – | – | – | – | 3 | 0 | 0 | 0
26 | YBX3 | – | – | – | – | 7 | 0 | 0 | 0
27 | FABP5 | – | – | – | – | 8 | 6 | 0 | 2

Further lines, results first:

Row | C-term flag [1] | C-term IgG [2] | N-term FLAG [3] | N-term IgG [4] | C-term flag [5] | N-term FLAG [6] | C-term IgG [7] | N-term IgG [8] | Substance
28 | 8 | 2 | 2 | 4 | – | – | – | – | TNKS1BP1
29 | – | – | – | – | 0 | 3 | 0 | 0 | PSMC4
30 | – | – | – | – | 2 | 0 | 0 | 0 | CEP170
31 | – | – | – | – | 2 | 0 | 0 | 0 | ELOC
32 | – | – | – | – | 0 | 6 | 0 | 0 | PPIA
33 | 4 | 0 | 3 | 4 | – | – | – | – | HSPB1
34 | 16 | 3 | 8 | 3 | – | – | – | – | RPL28
35 | – | – | – | – | 0 | 128 | 0 | 0 | TUBB2A
36 | 12 | 0 | 0 | 2 | – | – | – | – | HNRNPU
37 | 5 | 0 | 0 | 0 | – | – | – | – | CCT3
38 | – | – | – | – | 2 | 0 | 0 | 0 | SLC27A4
39 | 3 | 0 | 3 | 0 | – | – | – | – | DNAJA2
40 | – | – | – | – | 2 | 0 | 0 | 0 | PPIB
41 | 2 | 0 | 3 | 2 | – | – | – | – | TPI1
42 | 0 | 0 | 3 | 0 | – | – | – | – | HUWE1
43 | – | – | – | – | 0 | 3 | 0 | 0 | PSMD3
44 | 3 | 0 | 3 | 0 | – | – | – | – | ITGB3
45 | – | – | – | – | 2 | 0 | 0 | 0 | LAMB1
46 | 7 | 3 | 6 | 4 | – | – | – | – | SRSF3
47 | – | – | – | – | 2 | 0 | 0 | 0 | GALNT2
48 | 22 | 15 | 29 | 20 | – | – | – | – | FLG
49 | 3 | 0 | 0 | 0 | – | – | – | – | SUPT16H
